Measurements: PMC6146289, “Combinatorial use of disulfide bridges and native sulfur-SAD phasing for rapid structure determination of coiled-coils” (Bioscience Reports, 2018)

Molecular target: the molecule itself
Assay: SEC-MALS; oxidizing conditions: 20 mM Tris-HCl, pH 7.5, 150 mM NaCl, without DTT; S-200 10/30 column; 100 μl at 4 mg/ml injected; 10°C

B1: HsCEP135 82–144 (amino acids 82–144 of human CEP135, centrosomal protein of 135 kDa) (domain or fragment, UniProt Q66GS9 82-144, looked up)
chain: NNELYLELMKLREHSDQHVKELKTSLKKCARETADLKFLNNQYAHKLKLLEKESKAKNERIQQ
notes: coiled-coil fragment with one cysteine (Cys110) and one methionine per monomer; Under oxidizing conditions Cys110 forms a homotypic disulfide bridge between the two chains of the parallel coiled-coil dimer; Calculated molecular weight 7.71 kDa
stoichiometry N: 2
